Laboratory results: publication PMC9470164, “Membrane-mediated dimerization potentiates PIP5K lipid kinase activity” (eLife, 2022)

How the values were obtained:
[1] = biological target: human PIP5KB (D51R), purified, unlabelled (human)
[2] = biological target: mNG-PIP5KB, recombinantly expressed and purified (human) (UniProt O14986)
[3] = biological target: mNG-PIP5KB, recombinantly expressed and purified (human) (UniProt O14986); assay: single-molecule TIRF molecular brightness, photobleaching and tracking on supported lipid bilayers; purified mNG kinases at 100 pM; equilibrium membrane binding at ~600 kinases per field of view (0.2 kinases/µm^2); particles with intensity ≥8200 A.U. counted as dimers; membrane 96% DOPC, 4% PI(4,5)P2
[4] = biological target: mouse PIP5KA (D92R), purified (mouse)
[5] = biological target: mouse PIP5KA, purified (mouse)
[6] = biological target: the molecule itself; assay: single-molecule TIRF molecular brightness and photobleaching on supported lipid bilayers; mNG-tagged kinase in HEK293 cell lysate diluted ~10,000-fold to ~10 pM (legend: 1 pM mNG-PIP4KB, 5 pM mNG-PIP5K); low surface density ~0.03 molecules/µm^2; membrane 96% DOPC, 4% PI(4,5)P2; 23°C
[7] = biological target: the molecule itself; assay: single-molecule TIRF molecular brightness on supported lipid bilayers; purified kinases labelled with Alexa488 by Sortase-mediated peptide ligation; membrane 96% DOPC, 4% PI(4,5)P2

For “human PIP5KB (D51R), purified, unlabelled (enzyme)”, the lipid kinase activity on supported lipid bilayers, reduction against wild-type PIP5KB [1] was 7 fold.

With “mNG-PIP5KB, recombinantly expressed and purified (from UniProt O14986 1-540) (enzyme)” the effective phosphorylation rate constant per membrane-bound kinase (after the transition from slow to fast kinetics) (lipids/µm^2•s per kinase) [2] was 0.0027, the fold frequency of dimers against mNG-PIP5KB (D51R) [3] was 5 fold and the stoichiometry N [3] was 2. For the same molecule, the time that dimers persist before photobleaching or dissociating [3] was 1 to 2 s.

In the case of mouse PIP5KA (D92R), purified (enzyme), the reaction half-time of PI(4,5)P2 production at 5, 2.5 and 1 nM kinase (71 s, 139 s, 270 s) [4] is reported as 270 s.

In the case of mouse PIP5KA, purified (enzyme), the reaction half-time of PI(4,5)P2 production at 5, 2.5 and 1 nM kinase (28 s, 49 s, 90 s) [5] is reported as 90 s.

B1: mNeonGreen-tagged human phosphatidylinositol 5-phosphate 4-kinase type-2 beta (mNG-PIP4KB) (enzyme, UniProt P78356 1-416, looked up)
chain: MSSNCTSTTAVAVAPLSASKTKTKKKHFVCQKVKLFRASEPILSVLMWGVNHTINELSNVPVPVMLMPDDFKAYSKIKVDNHLFNKENLPSRFKFKEYCPMVFRNLRERFGIDDQDYQNSVTRSAPINSDSQGRCGTRFLTTYDRRFVIKTVSSEDVAEMHNILKKYHQFIVECHGNTLLPQFLGMYRLTVDGVETYMVVTRNVFSHRLTVHRKYDLKGSTVAREASDKEKAKDLPTFKDNDFLNEGQKLHVGEESKKNFLEKLKRDVEFLAQLKIMDYSLLVGIHDVDRAEQEEMEVEERAEDEECENDGVGGNLLCSYGTPPDSPGNLLSFPRFFGPGEFDPSVDVYAMKSHESSPKKEVYFMAIIDILTPYDTKKKAAHAAKTVKHGAGAEISTVNPEQYSKRFNEFMSNILT
notes: human phosphatidylinositol 5-phosphate 4-kinase type-2 beta (PIP4KB, PIP4K2B); Lentiviral vector with SFFV promoter; also called hPIP4K2B; source: HEK293T, transiently transfected, in clarified cell lysate (diluted); not shown: mNeonGreen, N-terminal, kept
In the case of B1, the “stoichiometry N” value [6] is reported as 2.

B2: Alexa488-labelled human PIP4KB (Ax488-PIP4KB), purified (enzyme)
chain: GGGGGMSSNCTSTTAVAVAPLSASKTKTKKKHFVCQKVKLFRASEPILSVLMWGVNHTINELSNVPVPVMLMPDDFKAYSKIKVDNHLFNKENLPSRFKFKEYCPMVFRNLRERFGIDDQDYQNSVTRSAPINSDSQGRCGTRFLTTYDRRFVIKTVSSEDVAEMHNILKKYHQFIVECHGNTLLPQFLGMYRLTVDGVETYMVVTRNVFSHRLTVHRKYDLKGSTVAREASDKEKAKDLPTFKDNDFLNEGQKLHVGEESKKNFLEKLKRDVEFLAQLKIMDYSLLVGIHDVDRAEQEEMEVEERAEDEECENDGVGGNLLCSYGTPPDSPGNLLSFPRFFGPGEFDPSVDVYAMKSHESSPKKEVYFMAIIDILTPYDTKKKAAHAAKTVKHGAGAEISTVNPEQYSKRFNEFMSNILT
modifications: Alexa488 on the N-terminal amine of the ligated LPETGG peptide
notes: glycine stretch of his6-SUMO3-GGGGG-PIP4K2B left after SenP2 cleavage; human PIP4K2B isoform 2, 1-416aa; Surmise: Sortase ligation leaves Alexa488-LPET joined to GGGGG-PIP4K2B; also called Alexa488-PIP4K; PIP4K2B; source: E. coli BL21(DE3) Star, purified (Co2+ HiTrap Chelating, Superdex 200), labelled by Sortase-mediated peptide ligation; not shown: His6, N-terminal, cleaved; SUMO3, N-terminal, …
B2: binds [7].
